# In article PMC4092090, “Investigation of a MMP-2 Activity-Dependent Anchoring Probe for Nuclear Imaging of Cancer” (PLoS ONE, 2014):
# Where two headings read alike, the source gives them in different places.
# What was measured:
# [1] = Effective dose estimation (OLINDA); settings: estimated from mouse biodistribution data (non-decay-corrected time radioactivity curves) with OLINDA
# Text: The effective dose of MDAP3000 was estimated using the area under the non-decay-corrected time radioactivity curves generated from the biodistribution data for each organ with the standard quantitation platform included in Organ Level Internal Dose Assessment software (OLINDA, Vanderbilt University).
# [2] = system: HT1080 tumor bearing mice; design: species or system mouse (Balb/c nu-nu); settings: mouse, in vivo, iv; for Radioactivity biodistribution, Blood / Radioactivity biodistribution, Heart / Radioactivity biodistribution, Intestine / Radioactivity biodistribution, Kidneys / Radioactivity biodistribution, Liver / Radioactivity biodistribution, Lung / Radioactivity biodistribution, Muscle / Radioactivity biodistribution, Pancreas / Radioactivity biodistribution, Spleen / Radioactivity biodistribution, Stomach / Radioactivity biodistribution, Tumor / T/B (tumor to blood ratio): 37 kBq
# Protocol: Female Balb/c nu-nu mice (5 weeks old, Japan SLC, Inc., Shizuoka, Japan) were housed under a 12-h light/12-h dark cycle and given free access to food and water. HT1080 cells (5×10^6 cells/100 μl PBS (-)/mouse) were subcutaneously inoculated into the right hind leg of Balb/c nu-nu mice. Animals were used for experiments two weeks after inoculation when the mean tumor size was 5.7±2.2 mm along the major axis. […]3000 and […] (37 kBq, 100 μl in PBS including 3% bovine serum albumin and 0.1% Tween 80) were injected intravenously into the tail vein of tumor bearing mice. The mice were sacrificed at various post-injection time points (n = 3 for each time point), and the organs of interest including the tumor tissues were collected for determination of the weights. The radioactivity of each sample was measured with a NaI well-type scintillation counter. From fitting to the two phase decay curves for blood radioactivity data analyzed by GraphPad Prism 6 (GraphPad Software, San Diego, CA), whole body pharmacokinetic parameters such as blood half-lives, distribution volume, mean residence time and total clearance were calculated for each of the probes and the values compared. Simple pharmacokinetic analysis using a single tissue compartment model was applied to the biodistribution data to calculate rate constants (K1 and k2) for radioactivity transfer from blood to tumor and clearance from tumor to blood by PMOD version 3.2. In addition, MDAP3000 (7.4 MBq in 200 μl) was injected intravenously into the tail vein of tumor bearing mice for metabolite analysis in tumors excised 3, 6, and 24 hr post injection (n = 2 each). Tumor homogenates were prepared on ice and insoluble material was removed by centrifugation after methanol treatment. The resulting supernatant was analyzed by RP-HPLC.
# [3] = system: HT1080 tumor bearing mice; design: species or system mouse (Balb/c nu-nu); settings: mouse, in vivo, iv
# Protocol: (§1) […]3000 and […] (37 kBq, 100 μl in PBS including 3% bovine serum albumin and 0.1% Tween 80) were injected intravenously into the tail vein of tumor bearing mice. The mice were sacrificed at various post-injection time points (n = 3 for each time point), and the organs of interest including the tumor tissues were collected for determination of the weights. The radioactivity of each sample was measured with a NaI well-type scintillation counter. From fitting to the two phase decay curves for blood radioactivity data analyzed by GraphPad Prism 6 (GraphPad Software, San Diego, CA), whole body pharmacokinetic parameters such as blood half-lives, distribution volume, mean residence time and total clearance were calculated for each of the probes and the values compared. Simple pharmacokinetic analysis using a single tissue compartment model was applied to the biodistribution data to calculate rate constants (K1 and k2) for radioactivity transfer from blood to tumor and clearance from tumor to blood by PMOD version 3.2. In addition, MDAP3000 (7.4 MBq in 200 μl) was injected intravenously into the tail vein of tumor bearing mice for metabolite analysis in tumors excised 3, 6, and 24 hr post injection (n = 2 each). Tumor homogenates were prepared on ice and insoluble material was removed by centrifugation after methanol treatment. The resulting supernatant was analyzed by RP-HPLC.
# [4] = system: HT1080 tumor xenograft; design: species or system mouse (Balb/c nu-nu); settings: mouse, in vivo
# Protocol: as §1
substance,measurement,setting,value
Palmitoyl-Dap(p-SCN-Bn-DTPA-^111In)-10-Adc-Gly-Pro-Leu-Gly-Val-Arg-Gly-Lys(ivDde)-PEG3000 [MDAP3000],Effective dose,[1],5.08×10^−2 mSv/MBq
same,Blood clearance (in words),[2],rapid blood clearance
same,Tumor accumulation (in words),[2],high tumor accumulation
same,"Radioactivity biodistribution, Blood",[2]; 0.25 h,44.98±2.53 % injected dose per gram
same,"Radioactivity biodistribution, Heart",[2]; 0.25 h,9.26±0.86 % injected dose per gram
same,"Radioactivity biodistribution, Intestine",[2]; 0.25 h,3.59±0.24 % injected dose per gram
same,"Radioactivity biodistribution, Kidneys",[2]; 0.25 h,11.85±0.84 % injected dose per gram
same,"Radioactivity biodistribution, Liver",[2]; 0.25 h,18.83±1.38 % injected dose per gram
same,"Radioactivity biodistribution, Lung",[2]; 0.25 h,20.44±4.77 % injected dose per gram
same,"Radioactivity biodistribution, Muscle",[2]; 0.25 h,1.72±0.76 % injected dose per gram
same,"Radioactivity biodistribution, Pancreas",[2]; 0.25 h,3.91±0.33 % injected dose per gram
same,"Radioactivity biodistribution, Spleen",[2]; 0.25 h,6.53±0.34 % injected dose per gram
same,"Radioactivity biodistribution, Stomach",[2]; 0.25 h,0.48±0.04 % injected dose per organ
same,"Radioactivity biodistribution, Tumor",[2]; 0.25 h,3.60±0.17 % injected dose per gram
same,T/B (tumor to blood ratio),[2]; 0.25 h,0.08±0.01
same,"Radioactivity biodistribution, Blood",[2]; 1 h,30.48±1.67 % injected dose per gram
same,"Radioactivity biodistribution, Heart",[2]; 1 h,8.20±0.74 % injected dose per gram
same,"Radioactivity biodistribution, Intestine",[2]; 1 h,5.85±0.11 % injected dose per gram
same,"Radioactivity biodistribution, Kidneys",[2]; 1 h,10.60±0.38 % injected dose per gram
same,"Radioactivity biodistribution, Liver",[2]; 1 h,18.45±0.81 % injected dose per gram
same,"Radioactivity biodistribution, Lung",[2]; 1 h,15.92±0.58 % injected dose per gram
same,"Radioactivity biodistribution, Muscle",[2]; 1 h,1.27±0.20 % injected dose per gram
same,"Radioactivity biodistribution, Pancreas",[2]; 1 h,4.35±0.74 % injected dose per gram
same,"Radioactivity biodistribution, Spleen",[2]; 1 h,5.65±0.98 % injected dose per gram
same,"Radioactivity biodistribution, Stomach",[2]; 1 h,0.69±0.21 % injected dose per organ
same,"Radioactivity biodistribution, Tumor",[2]; 1 h,5.49±0.53 % injected dose per gram
same,T/B (tumor to blood ratio),[2]; 1 h,0.18±0.03
same,"Radioactivity biodistribution, Blood",[2]; 3 h,15.33±0.81 % injected dose per gram
same,"Radioactivity biodistribution, Heart",[2]; 3 h,6.70±0.59 % injected dose per gram
same,"Radioactivity biodistribution, Intestine",[2]; 3 h,13.13±1.73 % injected dose per gram
same,"Radioactivity biodistribution, Kidneys",[2]; 3 h,11.89±0.76 % injected dose per gram
same,"Radioactivity biodistribution, Liver",[2]; 3 h,22.83±3.72 % injected dose per gram
same,"Radioactivity biodistribution, Lung",[2]; 3 h,9.72±1.02 % injected dose per gram
same,"Radioactivity biodistribution, Muscle",[2]; 3 h,1.49±0.15 % injected dose per gram
same,"Radioactivity biodistribution, Pancreas",[2]; 3 h,5.25±0.57 % injected dose per gram
same,"Radioactivity biodistribution, Spleen",[2]; 3 h,5.41±0.64 % injected dose per gram
same,"Radioactivity biodistribution, Stomach",[2]; 3 h,1.17±0.82 % injected dose per organ
same,"Radioactivity biodistribution, Tumor",[2]; 3 h,5.49±0.36 % injected dose per gram
same,T/B (tumor to blood ratio),[2]; 3 h,0.36±0.04
same,"Radioactivity biodistribution, Blood",[2]; 6 h,8.33±0.58 % injected dose per gram
same,"Radioactivity biodistribution, Heart",[2]; 6 h,5.64±0.79 % injected dose per gram
same,"Radioactivity biodistribution, Intestine",[2]; 6 h,14.08±2.39 % injected dose per gram
same,"Radioactivity biodistribution, Kidneys",[2]; 6 h,11.40±1.18 % injected dose per gram
same,"Radioactivity biodistribution, Liver",[2]; 6 h,17.61±2.53 % injected dose per gram
same,"Radioactivity biodistribution, Lung",[2]; 6 h,5.56±0.75 % injected dose per gram
same,"Radioactivity biodistribution, Muscle",[2]; 6 h,1.43±0.28 % injected dose per gram
same,"Radioactivity biodistribution, Pancreas",[2]; 6 h,4.97±1.31 % injected dose per gram
same,"Radioactivity biodistribution, Spleen",[2]; 6 h,4.94±1.51 % injected dose per gram
same,"Radioactivity biodistribution, Stomach",[2]; 6 h,0.97±0.46 % injected dose per organ
same,"Radioactivity biodistribution, Tumor",[2]; 6 h,7.31±1.12 % injected dose per gram
same,T/B (tumor to blood ratio),[2]; 6 h,0.88±0.14
same,"Radioactivity biodistribution, Blood",[2]; 24 h,1.61±0.27 % injected dose per gram
same,"Radioactivity biodistribution, Heart",[2]; 24 h,3.78±0.39 % injected dose per gram
same,"Radioactivity biodistribution, Intestine",[2]; 24 h,3.70±1.06 % injected dose per gram
same,"Radioactivity biodistribution, Kidneys",[2]; 24 h,10.81±2.35 % injected dose per gram
same,"Radioactivity biodistribution, Liver",[2]; 24 h,10.51±0.89 % injected dose per gram
same,"Radioactivity biodistribution, Lung",[2]; 24 h,2.50±0.44 % injected dose per gram
same,"Radioactivity biodistribution, Muscle",[2]; 24 h,1.02±0.16 % injected dose per gram
same,"Radioactivity biodistribution, Pancreas",[2]; 24 h,3.92±0.68 % injected dose per gram
same,"Radioactivity biodistribution, Spleen",[2]; 24 h,3.92±0.24 % injected dose per gram
same,"Radioactivity biodistribution, Stomach",[2]; 24 h,0.54±0.07 % injected dose per organ
same,"Radioactivity biodistribution, Tumor",[2]; 24 h,4.25±0.79 % injected dose per gram
same,T/B (tumor to blood ratio),[2]; 24 h,2.74±0.89
same,"Blood half-life, Fast",[3],5.6×10 min
same,"Blood half-life, Slow",[3],7.17 h
same,Clearance (total clearance),[3],0.0079 mL/min
same,Distribution volume,[3],1.94 mL
same,Mean residence time,[3],250 min
same,Slower washout rate from the tumor (k2) compared to MDAPCV,[4],approximately seven-fold
same,"K1, rate constant for transfer from blood to tumor, Mean",[4]; iv,0.0013 mL/g/min
